Measurements taken from article PMC6085368, “Structure of the essential peptidoglycan amidotransferase MurT/GatD complex from Streptococcus pneumoniae” (Nature Communications, 2018).
Positions count from the first letter of the chain named.

What was measured:
MurT/GatD [1] = biological target: T1, MurT/GatD (Streptococcus pneumoniae, UniProt Q8DNZ8+Q8DNZ9); assay: X-ray crystal structure, […] Å; assay type: binding; conditions: tentative assignment to residual density near GatD Cys107; no glutamine added, presumably carried over from E. coli
T1 construct: co-expressed in E. coli BL21 Star (DE3) from modified pET-30; MurT with N-terminal poly-His tag (cleavage not mentioned), GatD untagged; MurT/GatD heterodimer (four complexes in the asymmetric unit); MurT residues 1-42 present but not visible
T1 sequence (Q8DNZ9 1-447): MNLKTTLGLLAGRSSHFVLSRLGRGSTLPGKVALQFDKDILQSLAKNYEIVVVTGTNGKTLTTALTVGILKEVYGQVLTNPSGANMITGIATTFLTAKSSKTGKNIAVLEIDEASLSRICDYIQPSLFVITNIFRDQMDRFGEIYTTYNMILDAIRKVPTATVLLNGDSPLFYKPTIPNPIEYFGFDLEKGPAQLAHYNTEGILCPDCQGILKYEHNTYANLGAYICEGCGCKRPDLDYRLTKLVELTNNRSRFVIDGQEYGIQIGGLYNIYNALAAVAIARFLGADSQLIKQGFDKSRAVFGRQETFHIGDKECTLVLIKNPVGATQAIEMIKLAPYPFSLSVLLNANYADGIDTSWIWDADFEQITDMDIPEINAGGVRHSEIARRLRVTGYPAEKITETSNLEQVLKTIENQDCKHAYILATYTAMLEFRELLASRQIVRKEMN
T1 sequence (Q8DNZ8 1-260): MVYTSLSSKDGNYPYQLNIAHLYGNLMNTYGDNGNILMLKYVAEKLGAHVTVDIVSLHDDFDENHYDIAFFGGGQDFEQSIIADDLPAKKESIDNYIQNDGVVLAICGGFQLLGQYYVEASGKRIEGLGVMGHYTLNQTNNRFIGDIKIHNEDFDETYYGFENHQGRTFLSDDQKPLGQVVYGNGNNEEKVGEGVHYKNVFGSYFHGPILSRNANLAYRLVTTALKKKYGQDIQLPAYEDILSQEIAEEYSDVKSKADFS

MurT/GatD [2] = biological target: T1, MurT/GatD; assay: coupled ATPase assay (pyruvate kinase / lactate dehydrogenase, NADH at […] nm), initial velocities; assay type: biochemical; conditions: 2 mM ATP, 10 mM L-Gln, 10 mM MgCl2, 150 mM NaCl, 50 mM HEPES, 2 mM TCEP, 1% DDM, pH 7.5, 30 °C; MurT active site; read-out: Initial velocities method / Apparent KM
[3] = biological target: MurT variants with substituted conserved residues ("in most cases"); assay: co-purification (metal-affinity chromatography of His-tagged MurT, SEC; SDS-PAGE with Coomassie stain, ratio of bands); His-tagged MurT (wild type or variant) co-expressed with untagged GatD in E. coli; lysate loaded on HisTrap FF in 50 mM HEPES pH 7.5, 300 mM NaCl, 10 mM MgCl2, 25 mM imidazole, 2 mM TCEP; then SEC
purified protein [4] = substrate: NC(=O)CC[C@H](N)C(=O)O; assay: purified protein; assay type: biochemical, Streptococcus pneumoniae; conditions: 2 mM ATP, 10 μM lipid II (below its apparent KM), 10 mM MgCl2, 150 mM NaCl, 50 mM HEPES, 2 mM TCEP, 1% DDM, pH 7.5, 30 °C, GatD glutaminase site
purified protein [5] = substrate: Nc1ncnc2c1ncn2[C@@H]1O[C@H](COP(=O)(O)OP(=O)(O)OP(=O)(O)O)[C@@H](O)[C@H]1O; assay: purified protein; assay type: biochemical, Streptococcus pneumoniae; conditions: 10 mM L-Gln, 10 μM lipid II (below its apparent KM), 10 mM MgCl2, 150 mM NaCl, 50 mM HEPES, 2 mM TCEP, 1% DDM, pH 7.5, 30 °C, MurT active site
[6] = biological target: T2, MurT 4C4S variant (the four cysteines of the cysteine tetrad replaced by serines), with N-terminal … (Streptococcus pneumoniae, UniProt Q8DNZ9 1-447, 4C4S (Cys205 to Ser) | 4C4S (Cys208 to Ser) | 4C4S (Cys227 to Ser) | 4C4S …); assay: co-purification (metal-affinity chromatography of His-tagged MurT, SEC; SDS-PAGE with Coomassie stain, ratio of bands); His-tagged MurT (wild type or variant) co-expressed with untagged GatD in E. coli; lysate loaded on HisTrap FF in 50 mM HEPES pH 7.5, 300 mM NaCl, 10 mM MgCl2, 25 mM imidazole, 2 mM TCEP; then SEC; conditions: partners not purified
T2 construct: MurT, Streptococcus pneumoniae, with cysteines 205, 208, 227 and 230 replaced by serines; PDB 6FQB holds the wild-type parent; also called MT4C4S; 4C4S MurT/GatD; source: E. coli BL21 Star (DE3), co-expressed with GatD; purified (HisTrap, SEC); not shown: poly-histidine, N-terminal, kept
T2 sequence: T1 sequence (Q8DNZ9 1-447) with C205S, C208S, C227S, C230S

[7] = biological target: T3, MurT from Streptococcus pneumoniae, wild type, with N-terminal poly-histidine tag (Streptococcus pneumoniae, UniProt Q8DNZ9 1-447); assay: as above; conditions: partners not purified
T3 construct: MurT, subunit of the lipid II amidotransferase MurT/GatD, Streptococcus pneumoniae; N-terminal region 1-42 present by mass spectrometry though not visible in the crystal; central domain 43-302, C-terminal domain 303-439; also called MT; source: E. coli BL21 Star (DE3), co-expressed with GatD from a modified pET-30 plasmid; purified (HisTrap, Q Sepharose, SEC; anion exchange omitted for activity …)
T3 sequence: T1 sequence (Q8DNZ9 1-447)

NC(=O)CC[C@H](N)C(=O)O [L-Gln]
X-ray crystal structure, 3.0 Å (MurT/GatD [1]): glutamine was thus tentatively placed in the residual density observed in GatD active site

lipid II
Km (MurT/GatD [2]): 220 ± 60 µM

GatD from Streptococcus pneumoniae, wild type, without tag (from UniProt Q8DNZ8 1-260) (enzyme)
ratio of MurT/GatD bands [3]: 1.78

B1: MurT/GatD (Streptococcus pneumoniae R6) (protein)
chain 1: T1 sequence (Q8DNZ9 1-447)
chain 2: T1 sequence (Q8DNZ8 1-260)
notes: co-expressed in E. coli BL21 Star (DE3) from modified pET-30; MurT with N-terminal poly-His tag (cleavage not mentioned), GatD untagged; MurT/GatD heterodimer (four complexes in the asymmetric unit); MurT residues 1-42 present but not visible
Km (purified protein [4]): 78 ± 8 µM
Km (purified protein [5]): 16 ± 2 µM

B2: GatD from Streptococcus pneumoniae, wild type, without tag (enzyme)
chain: T1 sequence (Q8DNZ8 1-260)
notes: GatD, class I glutaminase subunit of the MurT/GatD amidotransferase, Streptococcus pneumoniae; also called GD; GatDSpn; source: E. coli BL21 Star (DE3), co-expressed with His-tagged MurT from a modified pET-30 plasmid; co-purified with MurT (HisTrap, Q Sepharose, SEC)
ratio of the Coomassie-stained MurT/GatD bands after SDS-PAGE [6]: 1.4
ratio of the Coomassie-stained MurT/GatD bands after SDS-PAGE [7]: 1.78
